For assay [1], the target named is isolated bovine cardiac native thin filaments (NTFs) (bovine) (UniProt Q3ZC07).
The target is the same in assay [2]. Description: co-sedimentation; high-velocity cosedimentation with isolated bovine cardiac NTFs, absence of calcium (pCa 9).
The target of assay [3] is myosin S2Δ, the first 126 amino acids of myosin S2 (cardiac myosin). Nature of the assay: MST; C1mC2 species (or native full-length cMyBP-C) titrated against myosin S2Δ; normalized MST curves; conditions in SI Appendix.
In assay [4] the target is isolated bovine cardiac native thin filaments (NTFs) (bovine) (UniProt Q3ZC07). Nature of the assay: co-sedimentation; high-velocity cosedimentation with isolated bovine cardiac NTFs, presence of 32 μmol/L CaCl2 (pCa 4.5).
The target of assay [5] is myosin S2Δ, the first 126 amino acids of myosin S2 (cardiac myosin).

With “C1mC2 bis-phosphorylated by PKA on S288 and S279 (C1mC2-2P) (domain or fragment)”, the EC50 of activation of NTF-stimulated myosin S1 ATPase in the absence of calcium (pCa 9) in assay [1] amounted to 5 μmol/L. In addition, the Kd in assay [2] amounted to 20 µM.

Take “C1mC2 monophosphorylated on S288 (C1mC2-1P) (domain or fragment)”: in assay [1], the EC50 of activation of NTF-stimulated myosin S1 ATPase in the absence of calcium (pCa 9) was found to be 2 μmol/L. The Kd was 30 µM in assay [3] and 20 µM in assay [2].

As for “C1mC2 monophosphorylated on S308 by PKCε (domain or fragment)”, the dissociation constant (Kd) in assay [3] worked out at 30 µM; in assay [2], 20 µM.

As for “C1mC2 tris-phosphorylated by PKA on S288, S279 and S313 (C1mC2-3P) (domain or fragment)”, the dissociation constant (Kd) in assay [4] and in assay [2] was 60 µM each time.

“C1mC2, recombinant fragment of rat cardiac myosin binding protein-C containing domains C1, the m-motif and C2, unphosphorylated (domain or fragment)”: in assay [5], the EC50 of activation of thick filament structure (RLC BC probe orientation) in ventricular trabeculae, pCa 9 stood at 10 μmol/L. Besides, in assay [1], the EC50 of activation of NTF-stimulated myosin S1 ATPase in the absence of calcium (pCa 9) amounted to 1 μmol/L; the IC50 of inhibition of NTF-stimulated myosin S1 ATPase in the absence of calcium (pCa 9), [C1mC2] > 2 μmol/L was determined as 3 μmol/L; the IC50 of inhibition of myosin S1-NTF ATPase during full calcium activation (pCa 4) is 2 μmol/L; the maximal inhibition of myosin S1-NTF ATPase during full calcium activation (pCa 4) turned out to be 50%. For the same substance, in assay [3], the KD of the high-affinity binding site was found to be 20.7 µM and the KD of the low-affinity binding site is > 400 µM. Besides, the Kd in assay [2] came to 20 µM.

“C1mC2-S288A, unphosphorylated (domain or fragment)” came in with a dissociation constant Kd in assay [3] of 20 µM.

In turn, “λ-protein phosphatase–treated native full-length cMyBP-C isolated from rat ventricular tissue (from UniProt P56741 1-1274) (natural protein)” showed an equilibrium dissociation constant (Kd) in assay [3] of 24.2 µM.

What is called Kd is the constant that tells how readily two partners part at equilibrium.

The values are drawn from paper PMC6681757.
